Here are results for one protein from PMC2924460 (Arteriosclerosis, thrombosis, and vascular biology, 2010).

This data set deals with the molecule itself. Nature of the data set: FRET or BRET.

B1: thromboxane A2 receptor alpha (TPα), fused to renilla luciferase (TPαrLUC) or to yellow fluorescent protein (TPαYFP) (receptor, UniProt P21731 1-343, looked up)
chain: MWPNGSSLGPCFRPTNITLEERRLIASPWFAASFCVVGLASNLLALSVLAGARQGGSHTRSSFLTFLCGLVLTDFLGLLVTGTIVVSQHAALFEWHAVDPGCRLCRFMGVVMIFFGLSPLLLGAAMASERYLGITRPFSRPAVASQRRAWATVGLVWAAALALGLLPLLGVGRYTVQYPGSWCFLTLGAESGDVAFGLLFSMLGGLSVGLSFLLNTVSVATLCHVYHGQEAAQQRPRDSEVEMMAQLLGIMVVASVCWLPLLVFIAQTVLRNPPAMSPAGQLSRTTEKELLIYLRVATWNQILDPWVYILFRRAVLRRLQPRLSTRPRSLSLQPQLTQRSGLQ
For the protein B1, the BRET50 turned out to be 1.24 YFP fold over basal.
